{"source": "the RNAGym collection of RNA variant scans (doi:10.7554/elife.80360)", "parents": {"B1": {"name": "CPEB3 Ribozyme (parent)", "chain": "GGGGGCCACAGCAGAAGCGUUCACGUCGCGGCCCCUGUCAGAUUCUGGUGAAUCUGCGAAUUCUGCUGU"}}, "data": [{"variants_of": "B1", "test": "self-cleavage, relative activity (ratio to wild type); higher = more cleavage; co-transcriptional", "values": [{"variant": "A8C G65C", "self-cleavage": 0.635}, {"variant": "C9A G65U", "self-cleavage": 0.844}, {"variant": "C9A G65A", "self-cleavage": 0.955}, {"variant": "A8C G41C", "self-cleavage": 0.757}, {"variant": "A8G U38G", "self-cleavage": 0.0785}, {"variant": "A8G U38A", "self-cleavage": 0.662}, {"variant": "A8G G48C", "self-cleavage": 0.954}, {"variant": "A8U U61C", "self-cleavage": 0.808}, {"variant": "A8C C54A", "self-cleavage": 0.915}, {"variant": "A8C C29G", "self-cleavage": 0.0981}, {"variant": "A8C C29U", "self-cleavage": 0.81}, {"variant": "C9G A59C", "self-cleavage": 0.896}, {"variant": "C9A U38A", "self-cleavage": 0.989}, {"variant": "C9A U38G", "self-cleavage": 0.152}, {"variant": "C9A C24U", "self-cleavage": 0.934}, {"variant": "C9A C24A", "self-cleavage": 0.891}, {"variant": "A8C C35A", "self-cleavage": 0.374}, {"variant": "A8G U43C", "self-cleavage": 0.758}, {"variant": "C7U G31A", "self-cleavage": 0.496}, {"variant": "C9A C22U", "self-cleavage": 0.424}, {"variant": "C9A C22G", "self-cleavage": 0.181}, {"variant": "C9A C22A", "self-cleavage": 0.251}, {"variant": "A8G C33G", "self-cleavage": 0.488}, {"variant": "A8U G30U", "self-cleavage": 0.519}, {"variant": "A8C G14U", "self-cleavage": 0.723}, {"variant": "C7U C29G", "self-cleavage": 0.314}, {"variant": "C7U C29U", "self-cleavage": 0.505}, {"variant": "C7U C29A", "self-cleavage": 0.413}, {"variant": "A8C C24A", "self-cleavage": 0.707}, {"variant": "C7U A42G", "self-cleavage": 0.908}, {"variant": "C9A C12A", "self-cleavage": 0.806}, {"variant": "A8G A15G", "self-cleavage": 0.777}, {"variant": "C7G U69A", "self-cleavage": 0.728}, {"variant": "A8U A10G", "self-cleavage": 0.937}, {"variant": "A8U A10C", "self-cleavage": 1.03}, {"variant": "A8C C33U", "self-cleavage": 1}, {"variant": "A8U A23C", "self-cleavage": 0.944}, {"variant": "C9A G50U", "self-cleavage": 0.999}, {"variant": "C9A G50C", "self-cleavage": 1.03}, {"variant": "C9A G50A", "self-cleavage": 1.02}, {"variant": "C9A U20C", "self-cleavage": 0.197}, {"variant": "A8U C33U", "self-cleavage": 0.996}, {"variant": "A8U C33A", "self-cleavage": 0.935}, {"variant": "C7U A13U", "self-cleavage": 0.693}, {"variant": "C7U A16G", "self-cleavage": 0.908}, {"variant": "A8C G56U", "self-cleavage": 0.908}, {"variant": "C9A C34G", "self-cleavage": 0.995}, {"variant": "C9G A23C", "self-cleavage": 0.993}, {"variant": "A8G C34U", "self-cleavage": 0.952}, {"variant": "A8G C34A", "self-cleavage": 0.734}, {"variant": "A8C C32A", "self-cleavage": 0.784}, {"variant": "A8C U64A", "self-cleavage": 0.947}, {"variant": "A8U G17A", "self-cleavage": 0.388}, {"variant": "C7U U61G", "self-cleavage": 0.714}, {"variant": "A8U A15C", "self-cleavage": 0.812}, {"variant": "A8U C57U", "self-cleavage": 0.361}, {"variant": "A8U C57A", "self-cleavage": 0.299}, {"variant": "C7U G28A", "self-cleavage": 0.123}, {"variant": "A8C G31A", "self-cleavage": 0.888}, {"variant": "A8G A23C", "self-cleavage": 0.751}, {"variant": "A8C A59C", "self-cleavage": 0.725}, {"variant": "C7U U46A", "self-cleavage": 0.985}, {"variant": "C7U U46G", "self-cleavage": 0.934}, {"variant": "A8G U21G", "self-cleavage": 0.199}, {"variant": "A8G U21A", "self-cleavage": 0.833}, {"variant": "A8C G28A", "self-cleavage": 0.215}, {"variant": "C9A U21A", "self-cleavage": 1.01}, {"variant": "C7U A52G", "self-cleavage": 0.957}, {"variant": "C7U A52U", "self-cleavage": 0.91}, {"variant": "A8U C18U", "self-cleavage": 0.928}, {"variant": "A8C A52U", "self-cleavage": 0.962}, {"variant": "C9A C45G", "self-cleavage": 1.03}, {"variant": "C9G C24G", "self-cleavage": 0.608}, {"variant": "C9A C66U", "self-cleavage": 1.02}, {"variant": "A8U G41A", "self-cleavage": 0.789}, {"variant": "A8G U67A", "self-cleavage": 0.59}, {"variant": "A8C G58U", "self-cleavage": 1.03}, {"variant": "A8C G58C", "self-cleavage": 0.963}, {"variant": "A8G A16G", "self-cleavage": 0.458}, {"variant": "A8G A16C", "self-cleavage": 0.0896}, {"variant": "A8C U38A", "self-cleavage": 0.897}, {"variant": "A8C U38G", "self-cleavage": 0.245}, {"variant": "A8C C63G", "self-cleavage": 0.734}, {"variant": "C9G A52U", "self-cleavage": 1.04}, {"variant": "C9G A52C", "self-cleavage": 0.985}, {"variant": "C9A U46G", "self-cleavage": 1.04}, {"variant": "A8G G31C", "self-cleavage": 0.0995}, {"variant": "C9A U26G", "self-cleavage": 0.983}, {"variant": "C7G U67G", "self-cleavage": 0.75}, {"variant": "A8G U61A", "self-cleavage": 0.379}, {"variant": "C9A U43C", "self-cleavage": 1.03}, {"variant": "C9G C33A", "self-cleavage": 1.03}, {"variant": "A8C U67C", "self-cleavage": 1}, {"variant": "A8C U67G", "self-cleavage": 0.975}, {"variant": "A8C C66A", "self-cleavage": 0.818}, {"variant": "C7U G30C", "self-cleavage": 0.608}, {"variant": "C7U G30A", "self-cleavage": 0.957}, {"variant": "C7U G30U", "self-cleavage": 0.814}, {"variant": "A8C U61A", "self-cleavage": 0.913}, {"variant": "A8G U36G", "self-cleavage": 0.135}, {"variant": "A8G U36C", "self-cleavage": 0.593}, {"variant": "A8G U64G", "self-cleavage": 0.304}, {"variant": "C9G C22A", "self-cleavage": 0.189}, {"variant": "C9A U62G", "self-cleavage": 0.943}, {"variant": "C9A U62C", "self-cleavage": 0.931}, {"variant": "A8U G11C", "self-cleavage": 0.873}, {"variant": "C9G C18U", "self-cleavage": 0.935}, {"variant": "A8G U69C", "self-cleavage": 1.05}, {"variant": "A8G U69A", "self-cleavage": 0.928}, {"variant": "C7U U43G", "self-cleavage": 0.757}, {"variant": "C9G C35A", "self-cleavage": 0.267}, {"variant": "C7U C34G", "self-cleavage": 0.287}, {"variant": "C7U C34U", "self-cleavage": 0.969}, {"variant": "C7U C18G", "self-cleavage": 0.104}, {"variant": "C7U G68U", "self-cleavage": 0.965}, {"variant": "C9A G14U", "self-cleavage": 0.767}, {"variant": "C9A G14A", "self-cleavage": 0.725}, {"variant": "A8U G50U", "self-cleavage": 1.01}, {"variant": "A8U U44A", "self-cleavage": 0.97}, {"variant": "C7U U26G", "self-cleavage": 0.762}, {"variant": "C7U U26A", "self-cleavage": 0.597}, {"variant": "A8G C57U", "self-cleavage": 0.303}, {"variant": "C9A G25C", "self-cleavage": 0.228}, {"variant": "C9A A15U", "self-cleavage": 0.886}, {"variant": "C9A A15C", "self-cleavage": 0.931}, {"variant": "A8G U55A", "self-cleavage": 0.269}, {"variant": "C7U C24G", "self-cleavage": 0.225}, {"variant": "C7U C24U", "self-cleavage": 0.676}, {"variant": "C7U G58U", "self-cleavage": 0.983}, {"variant": "C9A", "self-cleavage": 1.03}, {"variant": "C9G", "self-cleavage": 1.01}, {"variant": "C9A A40G", "self-cleavage": 1}, {"variant": "C9A U69A", "self-cleavage": 1.06}, {"variant": "A8G C45G", "self-cleavage": 0.801}, {"variant": "C9A G37U", "self-cleavage": 0.401}, {"variant": "A8C C18A", "self-cleavage": 0.152}, {"variant": "A8C A40C", "self-cleavage": 0.639}, {"variant": "C9A U53G", "self-cleavage": 1}, {"variant": "A8G U53C", "self-cleavage": 0.31}, {"variant": "A8G U53A", "self-cleavage": 0.591}, {"variant": "C9A A13C", "self-cleavage": 0.965}, {"variant": "A8U U49C", "self-cleavage": 1.02}, {"variant": "A8U U49A", "self-cleavage": 0.98}, {"variant": "A8G A10G", "self-cleavage": 0.122}, {"variant": "A8G A10C", "self-cleavage": 0.666}, {"variant": "A8U G56C", "self-cleavage": 0.761}, {"variant": "A8U A59G", "self-cleavage": 1}, {"variant": "A8U G48U", "self-cleavage": 1.03}, {"variant": "A8G U62G", "self-cleavage": 0.367}, {"variant": "A8C A15G", "self-cleavage": 0.995}, {"variant": "A8U C39U", "self-cleavage": 0.986}, {"variant": "C9A U44G", "self-cleavage": 1.01}, {"variant": "C9G C57U", "self-cleavage": 0.356}, {"variant": "C9A A52C", "self-cleavage": 1.01}, {"variant": "C9A A52U", "self-cleavage": 1.03}, {"variant": "C9A A52G", "self-cleavage": 1.02}, {"variant": "A8C U43G", "self-cleavage": 0.938}, {"variant": "A8C U43A", "self-cleavage": 0.971}, {"variant": "A8C U43C", "self-cleavage": 0.95}, {"variant": "A8C G50U", "self-cleavage": 1.03}, {"variant": "A8C G50A", "self-cleavage": 1.02}, {"variant": "A8C G50C", "self-cleavage": 0.98}, {"variant": "C9G A15G", "self-cleavage": 0.988}, {"variant": "C9G A15U", "self-cleavage": 0.911}, {"variant": "A8C A13U", "self-cleavage": 0.849}, {"variant": "A8C A13G", "self-cleavage": 0.987}, {"variant": "C9A U49G", "self-cleavage": 1.04}]}]}
